From patent US20250066490A1, “ANTI-CD70 ANTIBODIES, CONJUGATES THEREOF AND METHODS OF USING THE SAME” (ProfoundBio US Co., priority 2021, published 2025)
Where a chain is given by its changes, count along the chain named.

T1: CD70 ECD (Homo sapiens, UniProt P32970)
T1 sequence (P32970 39-193 limits assumed): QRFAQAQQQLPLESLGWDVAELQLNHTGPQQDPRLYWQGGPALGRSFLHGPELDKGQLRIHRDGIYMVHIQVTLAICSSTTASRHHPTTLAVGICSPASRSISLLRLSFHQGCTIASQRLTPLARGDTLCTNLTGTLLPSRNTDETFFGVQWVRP

T2: human CD70 extra-cellular domain (ECD) (Homo sapiens, UniProt P32970)
T2 construct: human, rat, or mouse CD70 extra-cellular domain (ECD) linked to His tag; His tag; purchased ACRO systems
T2 sequence (P32970 39-193 limits assumed): T1 sequence (P32970 39-193 limits assumed)

T3: mouse CD70 extra-cellular domain (ECD) (Mus musculus, UniProt O55237)
T3 construct: human, rat, or mouse CD70 extra-cellular domain (ECD) linked to His tag; His tag; purchased ACRO systems
T3 sequence (O55237 45-195): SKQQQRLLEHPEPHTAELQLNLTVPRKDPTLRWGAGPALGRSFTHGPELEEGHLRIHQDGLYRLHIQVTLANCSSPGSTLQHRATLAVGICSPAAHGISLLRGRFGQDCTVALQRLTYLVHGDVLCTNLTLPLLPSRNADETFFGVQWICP

T4: rat CD70 extra-cellular domain (ECD) (Rattus norvegicus, UniProt M0R613)
T4 construct: human, rat, or mouse CD70 extra-cellular domain (ECD) linked to His tag; His tag; purchased ACRO systems
T4 sequence (M0R613 1-194): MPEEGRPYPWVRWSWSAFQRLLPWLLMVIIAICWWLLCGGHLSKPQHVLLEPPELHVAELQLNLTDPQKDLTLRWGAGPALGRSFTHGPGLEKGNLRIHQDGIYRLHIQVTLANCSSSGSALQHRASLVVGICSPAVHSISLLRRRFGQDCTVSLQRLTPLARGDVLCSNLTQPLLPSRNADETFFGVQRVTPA

B1: 2A4P0L1: new VH/VL combination derived from the VH of 2A4 and the VL of 2D2 (antibody, V domains shown)
VH: QVQLQESGPGLVKPSETLSLTCTVSGGSVSSDYYYWSWIRQPPGKGLEWLGYIYYSGSTNYNPSLKSRVTISVDTSKNQFSLKLRSVTTADTAVYYCARGDGDYGGNVFPYWGQGTLVTVSS
VL: EIVLTQSPATLSLSPGERATLSCRASQSVSSYLAWYQQKPGQAPRLLIFDASNRATGIPARFSGSGSGTDFTLTISSLEPEDFAVYYCQQRLKFPLTFGGGTKVEIK
B2: 2A4: anti-CD70 antibody clone, VH SEQ 3 and VL SEQ 4; scFv and full human IgG1/kappa (antibody, V domains shown)
VH: B1 VH
VL: B1 VL with L92S, K93N, F94W
B3: 69A7: parent anti-CD70 antibody (U.S. Pat. No. 8,124,738B2), VH/VL SEQ ID NOs: 1 and 2 (antibody, V domains shown)
VH: B1 VH with V108C, P110D
VL: B1 VL with L92S, K93N, F94W
modifications: Synthetic 69A7 VH amino acid sequence; Synthetic 69A7 VL amino acid sequence
B4: Vorsetuzumab (antibody, V domains shown)
VH: QVQLVQSGAEVKKPGASVKVSCKASGYTFTNYGMNWVRQAPGQGLKWMGWINTYTGEPTYADAFKGRVTMTRDTSISTAYMELSRLRSDDTAVYYCARDYGDYGMDYWGQGTTVTVSS
VL: DIVMTQSPDSLAVSLGERATINCRASKSVSTSGYSFMHWYQQKPGQPPKLLIYLASNLESGVPDRFSGSGSGTDFTLTISSLQAEDVAVYYCQHSREVPWTFGQGTKVEIK
modifications: Synthetic h1F6 VH amino acid sequence; Synthetic h1F6 VL amino acid sequence

Assays:
[1] = Hydrophobic interaction chromatography (HIC); type: physicochemical; details: full IgG; for Retention time: hydrophobicity by HIC
Method: Antibodies were purified from cleared cell culture supernatants using Protein A chromatography (Protein A resin slurry, 4.5 mL, Bogen, Cat #18-0010-02). Briefly, supernatants were prepared for affinity chromatography and loaded onto the columns and allowed to flow completely through the resin. The columns were washed with binding buffer containing 0.15M NaCl and 0.2M PB, PH7.0. Antibody was eluted with elution buffer containing 0.15M NaCl, 0.1M Glycine and 0.2M PB, PH 3.0. Fractions were collected and neutralized by the addition of 1/10 volume of 1M Tris, PH9.0. The fractions were dialyzed for 2 hours against 1×PBS. Purified antibody was quantified by absorbance at A280. Samples from each step of the protein A chromatography were applied onto 12% SDS-PAGE gels for reduced and non-reduced electrophoresis. The hydrophobicity was assessed with hydrophobic interaction chromatography (HIC) on a TSK gel Butyl-NPR, 4.6×100 mm with Butyl-NPR (Tosoh corporation) using a Waters HPLC 2695 system.

[2] = test system: 786-O, Caki-1, U251 and DBTRG-05MG cells; experiment: Antibody binding by flow cytometry, statements across all four tumor cell lines; design: species or system human; details: range over the four cell lines
Method: The lead antibodies were tested for binding to renal carcinoma cells and glioblastoma cells expressing CD70 on the cell surface by flow cytometry. Cell lines 786-O (ATCC® CRL-1932™, provided by COBIOER), Caki-1 (ATCC® HTB-46™, provided by COBIOER), U251 and DBTRG-05MG (ATCC® CRL-2020™, provided by COBIOER) were each tested for antibody binding. 786-O cells were cultured with RPMI 1640 medium (Gibco, Cat #11875093) containing of 10% FBS (Gibco, Cat #10099141) while Caki-1 cells were cultured with McCoy's 5a Modified medium (Gibco, Cat #16600082) containing 10% FBS. U251 cells were cultured with MEM medium containing of 10% FBS and 1% NEAA+1 mM sodium pyruvate. DBTRG-05MG cells were cultured with DMEM medium (Gibco, Cat #C11995500BT) containing of 10% FBS. Each of the lead antibodies and the controls were incubated for 30 mins with the different cell lines (3×10^5 cells per well) in 0.2 ml FACS buffer (1×PBS with 0.1% BSA) at 4° C. Then, the cells were pelleted, washed, and incubated at 4° C. for 30 mins with 100 μl of 1:200 diluted PE-conjugated anti human Fc (Abcam, Ab98596) in FACS buffer. The cells were pelleted again, washed with PBS, resuspended in FACS buffer and analyzed by flow cytometer (Beckman, CytoFLEX).

CD70 ECD = biological target: T1, CD70 ECD; experiment: Biacore affinity measurement on immobilized CD70 ECD; type: binding; details: 25° C., CD70 immobilized
Method: The immobilization of antigen CD70 ECD was performed at 25° C. with HBS-EP as the running buffer. Sensor chip surface of flow cells 1, 4 were activated by freshly mixed 50 mmol/L N-Hydroxy succinimide (NHS) and 200 mmol/L 1-ethyl-3-(3-dimethylaminopropyl) carbodiimide hydrochloride (EDC) for 420s (10 μL/min). Afterwards, CD70 antigen diluted in 10 mmol/L NaAC (pH 4.5) was injected into flow cell 4 to achieve conjugation of the appropriate Response Unit, while flow cell 1 was set as a blank. After the amine coupling reaction, the remaining active coupling sites on chip surface were blocked by 420s injection of 1 mol/L ethanolamine hydrochloride.
The assay was performed at 25° C. and the running buffer was HBS-EP. Diluted antibodies were injected over the surface of flow cells 1 and 4 during the association phase, followed by injecting running buffer as the dissociation phase. All the data were processed using Biacore T200 Evaluation software version 3.1. Flow cell 1 and a blank injection of buffer in each cycle were used as a double reference for Response Units subtraction. Kinetic data of the interaction between the antibodies and CD70 antigen were obtained through affinity measurement.

[3] = biological target: T2, human CD70 extra-cellular domain (ECD); experiment: Biolayer interferometry (BLI), human CD70; type: binding
Method: (§1) Recombinant proteins consisting of human, rat, or mouse CD70 extra-cellular domain (ECD) linked to His tag was purchased (from ACRO systems). 69A7 and 2E7 (20 nM) were immobilized on anti-human IgG Fc biosensor tips (ForteBio). Binding assays using one concentration (100 nM) of recombinant protein in solution were performed using Octet RED (ForteBio). Association time was set at 180s and dissociation time was set at 300s. Binding affinity was calculated using ForteBio Data Acquisition 6.3 software. Affinity was derived by fitting the kinetic data to a 1:1 Langmuir binding model utilizing global fitting algorithms. […] Binding assays for 2E7 using multiple dilutions (from 200 nM down to 3.13 nM) of species' recombinant CD70 ECD proteins in solution were also performed using the same method.

[4] = biological target: T3, mouse CD70 extra-cellular domain (ECD); experiment: Biolayer interferometry (BLI), mouse CD70; type: binding
Method: as §1

[5] = biological target: T4, rat CD70 extra-cellular domain (ECD); experiment: Biolayer interferometry (BLI), rat CD70; type: binding
Method: as §1

[6] = Hu CD70 100 nM, one concentration
[7] = one concentration (100 nM), Table 9

Row | Molecule | hydrophobicity compared with the parent antibody 69A7 ([1]; HIC) | Retention time [1] | EC50 relative to that of antibody 69A7 [2] | Rmax (RU) (CD70 ECD) | ka (CD70 ECD) | kd (CD70 ECD) | Response [3, 6] | ka [3, 6] | Kd ([3]; human CD70, one concentration (100 nM), read-out: equilibrium dissociation constant (KD)) | Response ([4]; MS CD70 100 nM, one concentration, *Response below range of quantification) | ka ([4]; MS CD70 100 nM, one concentration, response below range of quantification) | cross-reactivity to mouse CD70 [4, 7] | Response ([5]; Rat CD70 100 nM, one concentration, *Response below range of quantification) | ka ([5]; Rat CD70 100 nM, one concentration, response below range of quantification) | cross-reactivity to rat CD70 [5, 7]
1 | B1 | slightly more hydrophobic than the parent antibody 69A7 | 9.56 min | 1.7-2.2 times | 45.47 RU | 51000 M⁻¹ s⁻¹ | 0.00197 s⁻¹ | – | – | – | – | – | – | – | – | –
2 | B2 | – | 9.06 min | – | – | – | – | – | – | – | – | – | – | – | – | –
3 | B3 | – | 8.83 min | – | 38.01 RU | 6330 M⁻¹ s⁻¹ | 0.00198 s⁻¹ | 0.3334 | 338700 M⁻¹ s⁻¹ | 2.9 nM | *0.0113 | 1494 M⁻¹ s⁻¹ | no cross-reactivity | *0.0198 | 94250 M⁻¹ s⁻¹ | no cross-reactivity
4 | B4 | – | – | – | 19.27 RU | 45100 M⁻¹ s⁻¹ | 0.00236 s⁻¹ | – | – | – | – | – | – | – | – | –
